The record followed here is patent US20200270325A1 (Merck Sharp & Dohme, published 2020).

Experiment [1] concerns the target human Glucagon receptor (GCGR) (human, UniProt P47871 26-477). The experiment in a line: cell-based or functional assay.
In experiment [2] the target is human GLP-1 receptor (GLP1R) (human, UniProt P43220 24-463). Put plainly: cell-based or functional assay.

Numbered stars: 1 amine (or outer) side, 2 acyl side, 3 side chain; on linkers, the order of the positions; unused ones are H or OH. Square brackets hold non-standard residues; d marks the D form. Side chains are listed from the residue outwards. Ends that are not written are not given here. * marks the point of attachment. Phe(4-CH2NH2) = NCc1ccc(C[C@H](N)C(=O)O)cc1; C18 diacid = O=C(O)CCCCCCCCCCCCCCCCC(=O)*; αMeW = C[C@](N)(Cc1c[nH]c2ccccc12)C(=O)O; γGlu = O=C(O)[C@H](CCC(=O)[*:2])N[*:1]; Met(O2) = CS(=O)(=O)CC[C@H](N)C(=O)O; αMeD = C[C@](N)(CC(=O)O)C(=O)O; αMeS = C[C@](N)(CO)C(=O)O; AEEA = NCCOCCOCC(=O)O; Aib = CC(C)(N)C(=O)O

Sequence of human Glucagon receptor (GCGR) (P47871 26-477): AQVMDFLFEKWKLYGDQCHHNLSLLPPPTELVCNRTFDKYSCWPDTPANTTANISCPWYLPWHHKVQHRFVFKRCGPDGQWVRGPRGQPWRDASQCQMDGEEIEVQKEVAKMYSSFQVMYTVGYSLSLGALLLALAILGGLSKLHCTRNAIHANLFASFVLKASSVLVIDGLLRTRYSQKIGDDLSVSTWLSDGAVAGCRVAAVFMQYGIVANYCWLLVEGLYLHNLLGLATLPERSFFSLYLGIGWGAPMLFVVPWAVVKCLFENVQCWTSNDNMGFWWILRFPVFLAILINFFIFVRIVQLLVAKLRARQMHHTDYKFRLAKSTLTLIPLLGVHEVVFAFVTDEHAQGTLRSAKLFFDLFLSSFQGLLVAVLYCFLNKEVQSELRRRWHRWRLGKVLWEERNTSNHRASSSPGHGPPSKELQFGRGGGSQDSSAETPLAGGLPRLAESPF

B1: TP636 (peptide)
peptide: H[Aib]QGTFTSDYSKYLDARAA[Phe(4-CH2NH2)]([AEEA-AEEA-γGlu-C18 diacid])DFVQWL[Met(O2)][αMeD]T-NH2
modifications: N-terminus assumed
SMILES: CC(C)C[C@H](NC(=O)[C@H](Cc1ccc(O)cc1)NC(=O)[C@H](CCCCN)NC(=O)[C@H](CO)NC(=O)[C@H](Cc1ccc(O)cc1)NC(=O)[C@H](CC(=O)O)NC(=O)[C@H](CO)NC(=O)[C@@H](NC(=O)[C@H](Cc1ccccc1)NC(=O)[C@@H](NC(=O)CNC(=O)[C@H](CCC(N)=O)NC(=O)C(C)(C)NC(=O)[C@@H](N)Cc1c[nH]cn1)[C@@H](C)O)[C@@H](C)O)C(=O)N[C@@H](CC(=O)O)C(=O)N[C@@H](C)C(=O)N[C@@H](CCCNC(=N)N)C(=O)N[C@@H](C)C(=O)N[C@@H](C)C(=O)N[C@@H](Cc1ccc(CNC(=O)COCCOCCNC(=O)COCCOCCNC(=O)CC[C@H](NC(=O)CCCCCCCCCCCCCCCCC(=O)O)C(=O)O)cc1)C(=O)N[C@@H](CC(=O)O)C(=O)N[C@@H](Cc1ccccc1)C(=O)N[C@H](C(=O)N[C@@H](CCC(N)=O)C(=O)N[C@@H](Cc1c[nH]c2ccccc12)C(=O)N[C@@H](CC(C)C)C(=O)N[C@@H](CCS(C)(=O)=O)C(=O)N[C@@](C)(CC(=O)O)C(=O)N[C@H](C(N)=O)[C@@H](C)O)C(C)C
Consider B1, for which the “GCGR EC50 human” value in experiment [1] is 0.11 nM. The “GLP1R EC50 human” value in experiment [2] amounted to 0.52 nM.

B2: TP631 (peptide)
peptide: H[Aib]QGTFTSDYSKYLDARAAK([AEEA-AEEA-γGlu-C18 diacid])DFVQ[αMeW]L[Met(O2)]DT-NH2
modifications: N-terminus assumed
SMILES: CC(C)C[C@H](NC(=O)[C@H](Cc1ccc(O)cc1)NC(=O)[C@H](CCCCN)NC(=O)[C@H](CO)NC(=O)[C@H](Cc1ccc(O)cc1)NC(=O)[C@H](CC(=O)O)NC(=O)[C@H](CO)NC(=O)[C@@H](NC(=O)[C@H](Cc1ccccc1)NC(=O)[C@@H](NC(=O)CNC(=O)[C@H](CCC(N)=O)NC(=O)C(C)(C)NC(=O)[C@@H](N)Cc1c[nH]cn1)[C@@H](C)O)[C@@H](C)O)C(=O)N[C@@H](CC(=O)O)C(=O)N[C@@H](C)C(=O)N[C@@H](CCCNC(=N)N)C(=O)N[C@@H](C)C(=O)N[C@@H](C)C(=O)N[C@@H](CCCCNC(=O)COCCOCCNC(=O)COCCOCCNC(=O)CC[C@H](NC(=O)CCCCCCCCCCCCCCCCC(=O)O)C(=O)O)C(=O)N[C@@H](CC(=O)O)C(=O)N[C@@H](Cc1ccccc1)C(=O)N[C@H](C(=O)N[C@@H](CCC(N)=O)C(=O)N[C@@](C)(Cc1c[nH]c2ccccc12)C(=O)N[C@@H](CC(C)C)C(=O)N[C@@H](CCS(C)(=O)=O)C(=O)N[C@@H](CC(=O)O)C(=O)N[C@H](C(N)=O)[C@@H](C)O)C(C)C
B2: in experiment [1], the “GCGR EC50 human” value amounted to 1.65 nM. Also, the “GLP1R EC50 human” value in experiment [2] came to 1.32 nM.

B3: TP633 (peptide)
peptide: H[Aib]QGTFTSDYSKYLDARAAQ[Phe(4-CH2NH2)]([AEEA-γGlu-C18 diacid])FVQWLLDT-NH2
modifications: N-terminus assumed
SMILES: CC(C)C[C@H](NC(=O)[C@H](Cc1ccc(O)cc1)NC(=O)[C@H](CCCCN)NC(=O)[C@H](CO)NC(=O)[C@H](Cc1ccc(O)cc1)NC(=O)[C@H](CC(=O)O)NC(=O)[C@H](CO)NC(=O)[C@@H](NC(=O)[C@H](Cc1ccccc1)NC(=O)[C@@H](NC(=O)CNC(=O)[C@H](CCC(N)=O)NC(=O)C(C)(C)NC(=O)[C@@H](N)Cc1c[nH]cn1)[C@@H](C)O)[C@@H](C)O)C(=O)N[C@@H](CC(=O)O)C(=O)N[C@@H](C)C(=O)N[C@@H](CCCNC(=N)N)C(=O)N[C@@H](C)C(=O)N[C@@H](C)C(=O)N[C@@H](CCC(N)=O)C(=O)N[C@@H](Cc1ccc(CNC(=O)COCCOCCNC(=O)CC[C@H](NC(=O)CCCCCCCCCCCCCCCCC(=O)O)C(=O)O)cc1)C(=O)N[C@@H](Cc1ccccc1)C(=O)N[C@H](C(=O)N[C@@H](CCC(N)=O)C(=O)N[C@@H](Cc1c[nH]c2ccccc12)C(=O)N[C@@H](CC(C)C)C(=O)N[C@@H](CC(C)C)C(=O)N[C@@H](CC(=O)O)C(=O)N[C@H](C(N)=O)[C@@H](C)O)C(C)C
Take B3: the “GCGR EC50 human” value in experiment [1] was determined as 0.12 nM. Besides, the “GLP1R EC50 human” value in experiment [2] worked out at 0.19 nM.

B4: TP634 (peptide)
peptide: H[Aib]QGTFTSDYSKYLDARAAQ[Phe(4-CH2NH2)]([AEEA-AEEA-γGlu-C18 diacid])FVQWL[Met(O2)][αMeD]T-NH2
modifications: N-terminus assumed
SMILES: CC(C)C[C@H](NC(=O)[C@H](Cc1ccc(O)cc1)NC(=O)[C@H](CCCCN)NC(=O)[C@H](CO)NC(=O)[C@H](Cc1ccc(O)cc1)NC(=O)[C@H](CC(=O)O)NC(=O)[C@H](CO)NC(=O)[C@@H](NC(=O)[C@H](Cc1ccccc1)NC(=O)[C@@H](NC(=O)CNC(=O)[C@H](CCC(N)=O)NC(=O)C(C)(C)NC(=O)[C@@H](N)Cc1c[nH]cn1)[C@@H](C)O)[C@@H](C)O)C(=O)N[C@@H](CC(=O)O)C(=O)N[C@@H](C)C(=O)N[C@@H](CCCNC(=N)N)C(=O)N[C@@H](C)C(=O)N[C@@H](C)C(=O)N[C@@H](CCC(N)=O)C(=O)N[C@@H](Cc1ccc(CNC(=O)COCCOCCNC(=O)COCCOCCNC(=O)CC[C@H](NC(=O)CCCCCCCCCCCCCCCCC(=O)O)C(=O)O)cc1)C(=O)N[C@@H](Cc1ccccc1)C(=O)N[C@H](C(=O)N[C@@H](CCC(N)=O)C(=O)N[C@@H](Cc1c[nH]c2ccccc12)C(=O)N[C@@H](CC(C)C)C(=O)N[C@@H](CCS(C)(=O)=O)C(=O)N[C@@](C)(CC(=O)O)C(=O)N[C@H](C(N)=O)[C@@H](C)O)C(C)C
For B4, in experiment [1], the “GCGR EC50 human” value was 0.77 nM. In experiment [2], the “GLP1R EC50 human” value came to 0.49 nM. For the molecule H[Aib]QGTFTSDYSKYLDARAAK([AEEA-AEEA-γGlu-C20‑OH])DFVQWL[Met(O2)][αMeD]T-NH2 [TP565], the “GCGR EC50 human” value in experiment [1] worked out at 5.42 nM. Also, in experiment [2], the “GLP1R EC50 human” value stood at 2.26 nM. With H[αMeS]QGTFTSDYSKYLD[Aib]RAAK([AEEA-AEEA-γGlu-C20‑OH])DFVQWL[Met(O2)]DT-NH2 [TP592], the “GLP1R EC50 human” value in experiment [2] amounted to 2.42 nM. As to H[Aib]QGTFTSD[Phe(4-CH2NH2)]([AEEA-AEEA-γGlu-C20‑OH])SKYLDARAAQDFVQWL[Met(O2)]DT-NH2 [TP580], the “GCGR EC50 human” value in experiment [1] worked out at 1.09 nM. The “GLP1R EC50 human” value in experiment [2] was determined as 0.46 nM.

As for H[αMeS]QGTFTSDYSKYLD[Aib]RAAK([AEEA-AEEA-γGlu-C20‑OH])DFVQWL[Met(O2)]DT-NH2 [TP593], the “GLP1R EC50 human” value in experiment [2] worked out at 4.95 nM.

B5: TP635 (peptide)
peptide: H[Aib]QGTFTSDYSKYLDARAA[Phe(4-CH2NH2)]([AEEA-γGlu-C18 diacid])DFVQWLLDT-NH2
modifications: N-terminus assumed
SMILES: CC(C)C[C@H](NC(=O)[C@H](Cc1ccc(O)cc1)NC(=O)[C@H](CCCCN)NC(=O)[C@H](CO)NC(=O)[C@H](Cc1ccc(O)cc1)NC(=O)[C@H](CC(=O)O)NC(=O)[C@H](CO)NC(=O)[C@@H](NC(=O)[C@H](Cc1ccccc1)NC(=O)[C@@H](NC(=O)CNC(=O)[C@H](CCC(N)=O)NC(=O)C(C)(C)NC(=O)[C@@H](N)Cc1c[nH]cn1)[C@@H](C)O)[C@@H](C)O)C(=O)N[C@@H](CC(=O)O)C(=O)N[C@@H](C)C(=O)N[C@@H](CCCNC(=N)N)C(=O)N[C@@H](C)C(=O)N[C@@H](C)C(=O)N[C@@H](Cc1ccc(CNC(=O)COCCOCCNC(=O)CC[C@H](NC(=O)CCCCCCCCCCCCCCCCC(=O)O)C(=O)O)cc1)C(=O)N[C@@H](CC(=O)O)C(=O)N[C@@H](Cc1ccccc1)C(=O)N[C@H](C(=O)N[C@@H](CCC(N)=O)C(=O)N[C@@H](Cc1c[nH]c2ccccc12)C(=O)N[C@@H](CC(C)C)C(=O)N[C@@H](CC(C)C)C(=O)N[C@@H](CC(=O)O)C(=O)N[C@H](C(N)=O)[C@@H](C)O)C(C)C
Regarding B5, the “GCGR EC50 human” value in experiment [1] worked out at 0.46 nM. For the same molecule, the “GLP1R EC50 human” value in experiment [2] is 2.13 nM.

B6: TP632 (peptide)
peptide: H[Aib]QGTFTSDYSKYLDARAAKDFVQ[αMeW]L[Met(O2)][αMeD]T-NH2
modifications: not fully specified (residue 20); printed as HUQGTFTSDYSKYLDARAAK(PEG2PEG2γEC18-OH)DFVQαMWL2αMDT-NH2
Take B6: the “GCGR EC50 human” value in experiment [1] was 5.9 nM. Besides, the “GLP1R EC50 human” value in experiment [2] stood at 6.6 nM.

B7: TP637 (peptide)
peptide: H[Aib]QGTFTSDYSKYLDARAAQDFVK([AEEA-γGlu-C18 diacid])WL[Met(O2)]DT-NH2
modifications: N-terminus assumed
SMILES: CC(C)C[C@H](NC(=O)[C@H](Cc1ccc(O)cc1)NC(=O)[C@H](CCCCN)NC(=O)[C@H](CO)NC(=O)[C@H](Cc1ccc(O)cc1)NC(=O)[C@H](CC(=O)O)NC(=O)[C@H](CO)NC(=O)[C@@H](NC(=O)[C@H](Cc1ccccc1)NC(=O)[C@@H](NC(=O)CNC(=O)[C@H](CCC(N)=O)NC(=O)C(C)(C)NC(=O)[C@@H](N)Cc1c[nH]cn1)[C@@H](C)O)[C@@H](C)O)C(=O)N[C@@H](CC(=O)O)C(=O)N[C@@H](C)C(=O)N[C@@H](CCCNC(=N)N)C(=O)N[C@@H](C)C(=O)N[C@@H](C)C(=O)N[C@@H](CCC(N)=O)C(=O)N[C@@H](CC(=O)O)C(=O)N[C@@H](Cc1ccccc1)C(=O)N[C@H](C(=O)N[C@@H](CCCCNC(=O)COCCOCCNC(=O)CC[C@H](NC(=O)CCCCCCCCCCCCCCCCC(=O)O)C(=O)O)C(=O)N[C@@H](Cc1c[nH]c2ccccc12)C(=O)N[C@@H](CC(C)C)C(=O)N[C@@H](CCS(C)(=O)=O)C(=O)N[C@@H](CC(=O)O)C(=O)N[C@H](C(N)=O)[C@@H](C)O)C(C)C
B7: the “GCGR EC50 human” value in experiment [1] came out at 0.94 nM. The “GLP1R EC50 human” value in experiment [2] came out at 0.53 nM. On the same counts, the results for H[dS]QGTFTSDYSKYLD[Aib]RAAK([AEEA-AEEA-γGlu-C20‑OH])DFVQWL[Met(O2)]DT-NH2 [TP578] are 0.604 nM and 4.95 nM.
